Reference: patent US20070014720A1 (published 2007)
Where a chain is given by its changes, count along the chain named.

T1: human CD20 (human, UniProt P11836 1-297)
T1 sequence (looked up): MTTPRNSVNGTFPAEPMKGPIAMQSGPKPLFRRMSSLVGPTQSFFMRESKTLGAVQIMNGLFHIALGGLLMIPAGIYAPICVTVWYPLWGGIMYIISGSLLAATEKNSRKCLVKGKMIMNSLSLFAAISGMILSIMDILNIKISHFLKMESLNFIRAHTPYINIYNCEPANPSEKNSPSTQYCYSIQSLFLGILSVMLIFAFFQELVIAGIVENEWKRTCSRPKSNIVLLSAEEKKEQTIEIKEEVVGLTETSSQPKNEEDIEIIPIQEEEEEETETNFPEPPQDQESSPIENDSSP

B1: mAb 1.13.2 (antibody, human IgG1, V domains shown)
VH: EVQLVQSGAEVKKPGESLKISCKGSGYSFTNYWIGWVRQMPGKGLEWMGIIYPGDSDTRYSPSFQGQVTISADKSISTAYLQWSSLKASDTAMYYCARQGDYYHYSGMDVWGQGTTVTVSS
VL: DVVMTQSPLSLSVTLGQPASISCRSSQSLVYNDGDTYLNWFQQRPGQSPRLLIYKVSNWDSGVPDRFSGSGSGTDFTLKVSRVEAEDVGVYYCMQGTHWPLTFGGGTKVEIK
notes: Human IgG1 kappa; also called 1.13.1; 50-001H1_13_1
B2: mAb 1.6.2 (antibody, human IgG1, V domains shown)
VH: B1 VH with N31S, Q99H, Y103S, H104N, Y105I, S106D, G107A, M108F, V110I, T116M
VL: DVVMTQSPLSLPVTLGQPASISCRSSQSLVYSDGNAYLNWFQQRPGQSPRRLIYKVSNWDSGVPDRFSGSGSGTDFTLKIRRVEAEDVGAYYCMQGIHCTFGPGTKVHIK
B3: mAb 1.12.3 (antibody, human IgG1, V domains shown)
VH: EVQLVQSGAEVKKPGESLKISCKGSGYSFTSYWIGWVRQMSGKGLEWMGIIYPGDSDTRYSPSFQGQVTISADKSISTAYLQWSSLKASDTAIYYCARHPSYGSGSPNFDYWGQGTLVTVSS
VL: DIVMTQTPLSSPVTLGQPASISCRSSQSLVYSDGNTYLSWLQQRPGQPPRLLFYKISNRFSGVPDRFSGSGAGTDFTLKISRVEAEDVGVYYCVQATQFPLTFGGGTKVEIK
B4: mAb 2.1.2 (ATCC Accession Number PTA-7328) (antibody, human IgG1, V domains shown)
VH: EVQLVQSGAEVKKPGESLKISCKGSGYSFTSYWIGWVRQMPGKGLEWMGIIYPGDSDTRYSPSFQGQVTISADKSISTAYLQWSSLKASDTAMYYCARQGDFWSGYGGMDVWGQGTTVTVSS
VL: B3 VL with L9H, Y31S, S32R, F53I, D65N, E84K, V94M, G105Q, K108R, V109L
notes: Human IgG1 kappa; also called 2.1.1; 50-001H2_1_1
B5: mAb 1.1.2 (ATCC Accession Number PTA-7329) (antibody, human IgG1, V domains shown)
VH: B3 VH with S41P, S61R, S77T, I93M
VL: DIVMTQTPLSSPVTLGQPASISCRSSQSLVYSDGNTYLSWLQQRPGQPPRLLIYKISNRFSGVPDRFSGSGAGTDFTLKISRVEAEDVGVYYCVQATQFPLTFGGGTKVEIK
notes: also called 50-001H1_1_2
B6: mAb 1.4.3 (antibody, human IgG1, V domains shown)
VH: B3 VH with S41P, S77T, I93M
VL: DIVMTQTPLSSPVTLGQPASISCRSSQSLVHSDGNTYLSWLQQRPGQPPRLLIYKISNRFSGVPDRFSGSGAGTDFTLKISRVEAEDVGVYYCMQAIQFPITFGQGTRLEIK
B7: mAb 1.9.2 (antibody, human IgG1, V domains shown)
VH: B4 VH with Q99H, G107Y, G108S, M109F, V111Y, T117L
VL: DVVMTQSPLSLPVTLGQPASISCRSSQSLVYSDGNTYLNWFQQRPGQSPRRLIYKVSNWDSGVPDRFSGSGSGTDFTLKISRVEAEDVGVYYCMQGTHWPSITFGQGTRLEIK
B8: mAb 2.2.2 (antibody, human IgG1, V domains shown)
VH: B4 VH with R59K, Y106N
VL: B3 VL with Y31S, S32R, F53I, A85V, V94M, L101I, G105Q, K108R, V109L
B9: mAb 1.5.3 (ATCC Accession Number PTA-7330) (antibody, human IgG1, V domains shown)
VH: B3 VH with S41P, S77T, I93M
VL: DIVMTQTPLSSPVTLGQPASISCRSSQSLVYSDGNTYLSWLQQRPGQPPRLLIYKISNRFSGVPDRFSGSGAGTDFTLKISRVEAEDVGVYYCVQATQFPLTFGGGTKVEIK
notes: Fully human IgG1 kappa; also called 50-001H1_5_3
B10: mAb 2.4.1 (antibody, human IgG1, V domains shown)
VH: EVQLVQSGAEVKKPGESLKISCKGSGYSFTNYWIGWVRQMPGKGLEWMGIIYPGDSDTRYSPSFQGQVTISADKSISTAYLQWSSLKASDTAMYYCARHGDYYASESSAFDIWGQGTMVTVSS
VL: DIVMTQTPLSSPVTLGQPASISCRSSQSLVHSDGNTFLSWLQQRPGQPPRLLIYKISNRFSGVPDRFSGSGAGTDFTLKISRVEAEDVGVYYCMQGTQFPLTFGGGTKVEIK
B11: mAb 1.10.3.1 (antibody, human IgG1, V domains shown)
VH: EVQLVQSGAEVKKPGESLKISCKGSGYSFTSYWIGWVRQMPGKGLEWMGIIYPGDSDTRYSPSFQGQVTISADKSISTAYLQWSSLKASDTAMYYCARMGDFWSGYYTRGMDVWGQGTTVTVSS
VL: EIVMTQSPATLSVSPGERATLSCRASQSVSSNLAWYQQKPGQAPRLLISGASTRATGIPARFSGSGSGTEFTLTISSLQSEDFAVYYCHQYNDWSLTFGGGTKVEIK
notes: Human IgG1 kappa; also called 50-001H1_10_3_1

Biological target: T1, human CD20
Assay: cell-based or functional assay

Row | % Lysis Daudi 0.001 µg/ml ADCC [%] | % Lysis Daudi 1 µg/ml ADCC [%] | % Lysis Raji 0.001 µg/ml ADCC [%] | % Lysis Raji 1 µg/ml ADCC [%] | % Lysis Ramos 0.001 µg/ml ADCC [%] | % Lysis Ramos 1 µg/ml ADCC [%] | EC50 µg/ml Daudi CDC [µg/mL] | EC50 µg/ml Raji CDC [µg/mL] | EC50 µg/ml Ramos Apoptosis Alamar Blue [µg/mL] | EC50 µg/ml Ramos Apoptosis Annexin V [µg/mL] | Binder
1 | 24 | 74 | 5 | 21 | 4 | 33 | ~10 | 3.54 | 0.291 | 2.97 | B1
2 | 77 | 79 | 5 | 36 | 3 | 43 | ~10 | 0.38 | 0.16 | 0.67 | B2
3 | 17 | 63 | 3 | 10 | 2 | 29 | 9.39 | 1.31 | 0.026 | 0.191 | B3
4 | 52 | 70 | 7 | 17 | 8 | 23 | 0.51 | 0.3 | 0.0329 | 0.163 | B4
5 | 77 | 96 | 12 | 53 | 15 | 84 | 0.8 | 0.4 | 0.0481 | 0.518 | B5
6 | 62 | 72 | 7 | 37 | 4 | 52 | ~10 | 1.3 | 0.11 | 2.86 | B6
7 | 19 | 74 | 5 | 17 | 3 | 40 | > 10 | 52.9 |  |  | B7
8 | 60 | 79 | 7 | 44 | 12 | 65 | 1.66 | 0.5 | 0.0207 | 0.373 | B8
9 | 66 | 79 | 10 | 53 | 8 | 60 | ~10 | 0.53 | 0.08 | 1.03 | B9
10 | 36 | 76 | 9 | 24 | -3 | 46 | ~10 | 3.72 | 0.112 | 4.68 | B10

Same assay, conditions: not given

Row | EC50 µg/ml Ramos Apoptosis Cell Titer Glo [µg/mL] | EC50 µg/ml Ramos Apoptosis WST-1 [µg/mL] | EC50 µg/ml Ramos CDC [µg/mL] | Binder
11 | 1.44 | 0.096 | 6.82 | B1
12 | 0.476 | 0.0393 | 0.31 | B2
13 | 0.0989 | 0.0383 | 2.07 | B3
14 | 0.0135 | 0.0067 | 0.16 | B4
15 | 0.041 | 0.0055 | 0.24 | B5
16 | 0.342 | 0.0514 | 13.1 | B6
17 | 0.528 |  | > 10 | B7
18 | 0.139 | 0.00076 | 1.03 | B8
19 | 0.191 | 0.037 | 2.56 | B9
20 | 0.983 | 0.042 | 3.12 | B10

Biological target: T1, human CD20
Assay: FACS KD on SB cells expressing CD20 (GMF against mAb concentration, nonlinear fit)
Procedure: The affinity of purified antibodies against CD20 (mAbs 1.1.2, 1.2.1, 2.1.2, 1.3.3, 1.5.3, 1.10.3.1, 1.13.2), Rituximab (positive control), and B1 was determined by FACS. Briefly, SB cells expressing CD20 were resuspended in FACS buffer (2% FBS, 0.05% NaN₃) at a concentration of approximately 5 million cells/mL. HSB cells were also resuspended in FACS buffer at a concentration of approximately 9 million cells/mL. Cells were kept on ice. Purified antibodies were serially diluted in filtered 1×PBS (2×) across 11 wells in 96-well plates. The twelfth well in each row contained buffer only. 1×PBS and cells were added to each mAb well such that the final volume was […] and each well contained approximately 375,000 cells. The final molecular concentration ranges for the mAbs were as follows:
Plates were placed on a plate shaker for 3 hours at 4° C., then spun and washed 3× with PBS. 200 μL of 145 nM Cy5 goat α-human polyclonal antibody was added to each well, and 200 μL of 192 nM Cy5 goat α-mouse polyclonal antibody was added to the cells complexed with B1 antibody. Plates were then incubated for 40 minutes at 4° C., then spun and washed 3× with PBS.
The Geometric Mean Fluorescence (GMF) of 10,000 cells for each mAb concentration was determined using a FACSCalibur instrument. No significant nonspecific binding (no significant signal) was apparent from the HSB cells. In each row containing the SB cells, the signal from the twelfth well (containing buffer only) was subtracted from the signal from the first 11 wells. A nonlinear plot of GMF as a function of molecular mAb concentration was fit using Scientist software using the equation: […]

Row | Kd [nM] | Binder
21 | 23.6 | B1
22 | 3.8 | B4
23 | 11.1 | B5
24 | 9.1 | B9
25 | 11.2 | B11
